Assay results from PMC7835709, “Structural Insight Into the SARS-CoV-2 Nucleocapsid Protein C-Terminal Domain Reveals a Novel Recognition Mechanism for Viral Transcriptional Regulatory Sequences”.

How the values were obtained:
[1] = target: T1, SARS-CoV-2 N CTD+IDR (SARS-CoV-2, UniProt P0DTC9 250-419); experiment: BLI; BLI (Octet RED96e, SSA sensors, biotinylated RNA immobilised): PBS, 0.02% Tween 20, 25 C; pH not stated; 1:1 kinetic fit; conditions: protein: recombinant, tags: 6xHis-SUMO tag removed by Ulp1, chain copies: 2
[2] = target: SARS-CoV-2 N-CTD (SARS-CoV-2, UniProt P0DTC9 250-365); experiment: BLI; conditions: protein: recombinant; tags: 6xHis-SUMO tag removed by Ulp1; chain copies: 2; label: 5' biotin
[3] = target: T1, SARS-CoV-2 N CTD+IDR; experiment: BLI; value order as in text ('respectively'); BLI (Octet RED96e, SSA sensors, biotinylated RNA immobilised): PBS, 0.02% Tween 20, 25 C; pH not stated; 1:1 kinetic fit; conditions: protein: recombinant; tags: 6xHis-SUMO tag removed by Ulp1; chain copies: 2; label: 5' biotin
[4] = target: T2, SARS-CoV-2 N LKR+CTD (SARS-CoV-2, UniProt P0DTC9 183-365); experiment: as above; conditions: protein: recombinant; tags: 6xHis-SUMO tag removed by Ulp1; chain copies: 2; label: 5' biotin
[5] = target: T2, SARS-CoV-2 N LKR+CTD; experiment: BLI; BLI (Octet RED96e, SSA sensors, biotinylated RNA immobilised): PBS, 0.02% Tween 20, 25 C; pH not stated; 1:1 kinetic fit; conditions: protein: recombinant; tags: 6xHis-SUMO tag removed by Ulp1; chain copies: 2; label: 5' biotin

B1: Duplex TRS-2 (RNA2/RNA5) (dsRNA)
RNA 1: AAACGAAC
RNA 2: GUUCGUUU
Question: For B1, which Kd ([1]; blunt, 8 bp) is on record?
Answer: 18 µM

B2: Unpaired Duplex TRS-1 (RNA1/RNA5, TRS1-cTRS2) (dsRNA)
RNA 1: ACGAAC
RNA 2: GUUCGUUU
Question: For B2, which Kd ([1]; 3' overhang 2 nt (UU) on strand 2) is on record?
Answer: 23 µM

B3: Duplex TRS-3 (RNA3/RNA6) (dsRNA)
RNA 1: AAACGAACUU
RNA 2: AAGUUCGUUU
Question: B3 was tested. Which Kd ([1]; blunt, 10 bp) did it give?
Answer: 11 µM

B4: Unpaired Duplex TRS-2 (RNA2/RNA4) (dsRNA)
RNA 1: AAACGAAC
RNA 2: GUUCGU
Question: Which Kd ([1]; 5' overhang 2 nt (AA) on strand 1 per Methods) does the source give for B4 here?
Answer: 33 µM

B5: Duplex TRS-1 (RNA1/RNA4) (dsRNA)
RNA 1: ACGAAC
RNA 2: GUUCGU
Question: How did the Kd ([1]; blunt, 6 bp) turn out when B5 was run?
Answer: 29 µM

Question: For ACGAAC (ssRNA) [TRS-1 (RNA1)], which Kd [2] is on record?
Answer: 320 µM

Question: And the Kd [3]?
Answer: 33 µM

Question: What about the Kd [4] of the same binder?
Answer: 14 µM

Question: Which Kd ([1]; label: 5' biotin) does the source give for AAACGAACUU (ssRNA) [TRS-3 (RNA3)] here?
Answer: 5.9 µM

Question: And the Kd [5]?
Answer: 61 µM

Question: What about the Kd [2] of the same binder?
Answer: 150 µM

Question: Which results are given for AAACGAAC (ssRNA) [TRS-2 (RNA2)]?
Answer: Kd ([1]; label: 5' biotin): 9.1 µM; Kd [5]: 17 µM; Kd [2]: 180 µM
